Positions count from the first letter of the chain named. In names and notes the source's numbering stands.
B1: GpH7-B14/GpL16-k0 (antibody, human IgG1, kappa)
heavy: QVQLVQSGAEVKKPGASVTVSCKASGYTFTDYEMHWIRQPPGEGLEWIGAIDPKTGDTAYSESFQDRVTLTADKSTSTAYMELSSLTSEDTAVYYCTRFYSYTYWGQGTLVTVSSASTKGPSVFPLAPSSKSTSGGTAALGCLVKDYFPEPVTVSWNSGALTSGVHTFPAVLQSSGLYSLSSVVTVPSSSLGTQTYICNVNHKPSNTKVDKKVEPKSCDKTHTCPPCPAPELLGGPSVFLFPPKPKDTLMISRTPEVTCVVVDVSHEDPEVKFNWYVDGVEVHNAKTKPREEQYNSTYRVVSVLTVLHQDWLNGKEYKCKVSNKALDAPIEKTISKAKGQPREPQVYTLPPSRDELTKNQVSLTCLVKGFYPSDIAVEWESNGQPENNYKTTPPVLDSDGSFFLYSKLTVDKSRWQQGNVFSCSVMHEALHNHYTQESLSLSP
light: DIVMTQSPLSLPVTPGEPASISCQASESLVHSNRNTYLHWYLQKPGQSPQLLIYKVSNRFSGVPDRFSGSGSGTDFTLKISRVEAEDVGVYYCSQNTHVPPTFGQGTKVEIERTVAAPSVFIFPPSDEQLKSGTASVVCLLNNFYPREAKVQWKVDNALQSGNSQESVTEQDSKDSTYSLSSTLTLSKADYEKHKVYACEVTHQGLSSPVTKSFNRGEC
notes: P329D in both H chains
B2: GpH7-TA7/GpH7-B78/GpL16-k0 (antibody, human IgG1, kappa)
heavy 1: QVQLVQSGAEVKKPGASVTVSCKASGYTFTDYEMHWIRQPPGEGLEWIGAIDPKTGDTAYSESFQDRVTLTADKSTSTAYMELSSLTSEDTAVYYCTRFYSYTYWGQGTLVTVSSASTKGPSVFPLAPSSKSTSGGTAALGCLVKDYFPEPVTVSWNSGALTSGVHTFPAVLQSSGLYSLSSVVTVPSSSLGTQTYICNVNHKPSNTKVDKKVEPKSCDKTHTCPPCPAPEYLWGPSVFLFPPKPKDTLMISRTPEVTCVVVDVSHEDPEVKFNWYVDGVEVHNAKTKPREEQYNATYRVVSVLTVLHQDWLNGKEYKCKVSNKALPAPIEKTISKAKGQPREPQVYTLPPSRKELTKNQVSLTCLVKGFYPSDIAVEWESNGQPENNYKTTPPVLDSDGSFFLYSKLTVDKSRWQQGNVFSCSVMHEALHNRYTQKSLSLSP
heavy 2: B2 heavy 1 with Y232L, W234G, S237D, A296S, A328L, I330E, K354D, R433H, K437E
light: B1 light
notes: L234Y/G236W/S298A in one H chain, S239D/A330L/I332E in the other
B3: GpH7-A53/GpH7-B78/GpL16-k0 (antibody, human IgG1, kappa)
heavy 1: B2 heavy 1 with Y232L, W234G, S237D, A296S
heavy 2: B2 heavy 1 with Y232L, W234G, S237D, A296S, A328L, I330E, K354D, R433H, K437E
light: B1 light
notes: S239D in one H chain, S239D/A330L/I332E in the other
B4: GpH7-B15/GpL16-k0 (antibody, human IgG1, kappa)
heavy: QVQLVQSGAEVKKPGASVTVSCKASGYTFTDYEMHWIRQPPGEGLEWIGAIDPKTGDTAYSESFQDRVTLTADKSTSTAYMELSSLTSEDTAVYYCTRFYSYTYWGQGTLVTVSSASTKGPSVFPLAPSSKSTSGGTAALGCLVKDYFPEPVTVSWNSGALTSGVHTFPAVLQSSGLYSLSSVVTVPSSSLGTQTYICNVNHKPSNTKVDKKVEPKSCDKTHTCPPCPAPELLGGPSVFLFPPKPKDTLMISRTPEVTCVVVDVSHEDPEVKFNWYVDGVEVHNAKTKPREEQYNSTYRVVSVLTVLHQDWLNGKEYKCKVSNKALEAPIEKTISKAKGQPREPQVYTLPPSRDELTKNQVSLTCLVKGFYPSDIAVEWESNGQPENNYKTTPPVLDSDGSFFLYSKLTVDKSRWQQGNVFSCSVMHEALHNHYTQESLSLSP
light: B1 light
notes: P329E in both H chains
B5: H240-Kn192/H240-Hl204/L73-k0 (antibody, human IgG1, kappa)
heavy 1: QDQLVQSGAEVKKPGASVKVSCKASGFNIKDTYIQWVRQAPGQGLEWMGRIDPLRKQTKYREKFEGRVTITADTSTNTAYMELSSLRSEDTAVYYCVRSGREFDYWGQGTLVTVSSASTKGPSVFPLAPSSKSTSGGTAALGCLVKDYFPEPVTVSWNSGALTSGVHTFPAVLQSSGLYSLSSVVTVPSSSLGTQTYICNVNHKPSNTKVDKKVEPKSCDKTHTCPPCPAPEYNWGPMVFLFPPKPKDTLMISRTPEVTCVVVDVSDEDPEVKFNWYVDGVEVHNAKTKPREKQYNATYRVVSVLTVLHQDWLNGKEYKCKVSNKDLPAPIEKTISKAKGQPREPQVCTLPPSRDELTKNQVSLWCLVKGFYPSDIAVEWESNGQPENNYKTTPPVLDSDGSFFLYSKLTVDKSRWQQGNVFSCSVMHEALHNHYTQKSLSLSP
heavy 2: QDQLVQSGAEVKKPGASVKVSCKASGFNIKDTYIQWVRQAPGQGLEWMGRIDPLRKQTKYREKFEGRVTITADTSTNTAYMELSSLRSEDTAVYYCVRSGREFDYWGQGTLVTVSSASTKGPSVFPLAPSSKSTSGGTAALGCLVKDYFPEPVTVSWNSGALTSGVHTFPAVLQSSGLYSLSSVVTVPSSSLGTQTYICNVNHKPSNTKVDKKVEPKSCDKTHTCPPCPAPELLTGPSVFLFPPKPKDTLMISRTPEVTCVVVDVSHEEPEVKFNWYVDGVEVHNAKTKPREEQYNSTYRVVSVLTVLHQDWLNGKEYKCKVSNDALPKPEEETISKAKGQPREPQVYTLPPSRCELTKNQVSLSCAVKGFYPSDIAVEWESNGQPENNYKTTPPVLDSDGSFFLVSKLTVDKSRWQQGNVFSCSVMHEALHNHYTQKSLSLSP
light: DIQMTQSPSSLSASVGDRVTITCRASQDIHKYIAWYQQKPGQAPRLLIQYTSTLQPGVPSRFSGSGSGTDYTFTISSLQPEDIATYYCLQYEQLRTFGGGTKVEIKRTVAAPSVFIFPPSDEQLKSGTASVVCLLNNFYPREAKVQWKVDNALQSGNSQESVTEQDSKDSTYSLSSTLTLSKADYEKHKVYACEVTHQGLSSPVTKSFNRGEC
notes: Y235N/E294K in H240-Kn120; G236T/I332E in H240-Hl068
B6: H240-Kn193/H240-Hl204/L73-k0 (antibody, human IgG1, kappa)
heavy 1: B5 heavy 1 with K293R
heavy 2: B5 heavy 2
light: B5 light
notes: Y235N/E294R in H240-Kn120; G236T/I332E in H240-Hl068

Experiments:
FcγRIa [1] = target: T1, FcγRIa (human, UniProt P12314 16-292); assay: SPR (Biacore), relative binding
T1 construct: extracellular domain; also called FcgRIa; FcgRI; not shown: His tag attached to the C terminus
Text: The constructed expression vectors were each combined with GpH7-A5 and GpL16-k0 to express heterodimerized antibodies, or they were combined with GpL16-k0 alone but not with other H chains to express homodimerized antibodies. These antibodies were expressed and purified according to the method described in Reference Example 1. The resulting purified antibodies are the following: the heterodimerized antibodies GpH7-A5/GpH7-B12/GpL16-k0, GpH7-A5/GpH7-B13/GpL16-k0, GpH7-A5/GpH7-B14/GpL16-k0, and GpH7-A5/GpH7-B15/GpL16-k0; and homodimerized antibodies GpH7-B12/GpL16-k0, GpH7-B13/GpL16-k0, GpH7-B14/GpL16-k0, and GpH7-B15/GpL16-k0. The prepared antibodies were used to assess the binding activity to each FcγR by the method described in Reference Example 2.
Analysis of interaction between objective antibody and the FcγR was carried out using Biacore T100 (GE Healthcare). HBS-EP+ (GE Healthcare) was used as the running buffer, and the measurement temperature was set to 25° C. Chips produced by immobilizing the antigen peptide by the amine coupling method to a Series S Sencor Chip CM5 (GE Healthcare), or alternatively, chips produced by allowing preliminarily biotinylated antigen peptides to interact with and immobilize onto a Series S Sensor Chip SA (certified) (GE Healthcare) were used. Antibodies of interest were captured onto an antigen peptide-immobilized chip, and allowed to interact to each FcγR diluted with running buffer. To regenerate and repeatedly use the chip, the antibodies captured on the chip were washed off by reacting 10 mM glycine-HCl, pH 1.5.

FcγRIIIa = target: T2, FcγRIIIa (human, UniProt P08637 17-208); assay: SPR (Biacore), KD
T2 construct: extracellular domain; not shown: His tag attached to the C terminus

FcγRIIIa F = target: T3, FcγRIIIa F (human, UniProt P08637 17-208); assay: SPR (Biacore), KD
T3 construct: extracellular domain; also called FcgRIIIa F; FcgRIIIaF; not shown: His tag attached to the C terminus

FcγRIIIa V = target: T4, FcγRIIIa V (human, UniProt P08637 17-208); assay: SPR (Biacore), KD
T4 construct: extracellular domain; also called FcgRIIIa V; FcgRIIIaV; not shown: His tag attached to the C terminus

FcγRIa [2] = target: T1, FcγRIa; assay: SPR (Biacore4000), kinetic analysis
Method: The variants described above were assessed for their binding to FcγR according to the method described in Reference Example 8.
Analysis of interaction between obj ective antibody and the FcγR was carried out using Biacore T100 (GE Healthcare), Biacore T200, Biacore A100, and Biacore 4000. HBS-EP+ (GE Healthcare) was used as the running buffer, and the measurement temperature was set to 25° C. Chips produced by immobilizing the antigen peptide by the amine coupling method to a Series S sensor Chip CM5 (GE Healthcare), chips produced by allowing preliminarily biotinylated antigen peptides to interact with and immobilize onto a Series S Sensor Chip SA (certified) (GE Healthcare), chips produced by immobilizing Protein L (ACTIGEN, BioVision) to Series S Sencor Chip CM5 (GE Healthcare), or chips produced by immobilizing Protein A/G (Thermo Scientific) to Series S Sencor Chip CM5 (GE Healthcare) were used. Antibodies of interest were captured onto these chips, and allowed to interact to each FcγR diluted with running buffer. To regenerate and repeatedly use the chip, the antibodies captured onto the chip were washed off by reacting 10 mM glycine-HCl, pH 1.5.

T1 sequence (P12314 16-292): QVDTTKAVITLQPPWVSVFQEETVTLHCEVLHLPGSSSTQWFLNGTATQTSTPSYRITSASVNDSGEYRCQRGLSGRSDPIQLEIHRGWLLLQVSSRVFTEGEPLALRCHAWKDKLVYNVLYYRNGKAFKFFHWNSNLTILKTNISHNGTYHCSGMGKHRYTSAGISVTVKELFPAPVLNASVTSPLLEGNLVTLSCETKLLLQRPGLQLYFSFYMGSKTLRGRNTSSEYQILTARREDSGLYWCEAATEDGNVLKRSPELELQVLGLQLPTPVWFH
T4 sequence (P08637 17-208 F176V limits assumed): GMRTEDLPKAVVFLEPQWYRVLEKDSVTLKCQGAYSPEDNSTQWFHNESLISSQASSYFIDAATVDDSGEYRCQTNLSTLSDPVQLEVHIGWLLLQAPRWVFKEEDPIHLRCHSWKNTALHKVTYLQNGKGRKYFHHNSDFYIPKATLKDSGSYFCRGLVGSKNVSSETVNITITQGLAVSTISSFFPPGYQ
T3 sequence (P08637 17-208): as the sequence (P08637 17-208 F176V limits assumed) above, with V160F counted along it
T2 sequence (P08637 17-208): as the sequence (P08637 17-208 F176V limits assumed) above, with V160F counted along it

Binder | binding activity relative to GpH7-A5/GpH7-B3/GpL16-k0 (FcγRIa [1]) | fold enhancement of binding against the variant before introduction of I332E and Y235N (FcγRIIIa F) [fold] | fold enhancement of binding against the variant before introduction of I332E and Y235N (FcγRIIIa V) [fold] | koff (FcγRIa [2]) [s⁻¹] | further results
B1 | ≤ 0.2 fraction of GpH7-A5/GpH7-B3/GpL16-k0 |  |  |  | 
B2 |  |  |  |  | fold enhancement of binding against GpH7-A5/GpH7-B78/GpL16-k0 (FcγRIIIa): ≥ 10 fold
B3 |  |  |  |  | fold decrease of binding activity against GpH7-A57/GpH7-B78/GpL16-k0 (FcγRIIIa): 1.8 fold
B4 | ≤ 0.2 fraction of GpH7-A5/GpH7-B3/GpL16-k0 |  |  |  | 
B5 |  | 2 | 8 | < 5e-05 | 
B6 |  | 2 | 8 | < 5e-05 | 
